Reference: article PMC5454392, “Selective BET bromodomain inhibition as an antifungal therapeutic strategy” (Nature Communications, 2017)
Square brackets hold non-standard residues; d marks the D form. Ends that are not written are not given here. Arg(Me2a) = CN(C)C(=N)NCCC[C@H](N)C(=O)O; Lys(Me3) = C[N+](C)(C)CCCC[C@H](N)C(=O)O; Arg(Me2s) = CN=C(NC)NCCC[C@H](N)C(=O)O; pT = C[C@@H](OP(=O)(O)O)[C@H](N)C(=O)O; pS = N[C@@H](COP(=O)(O)O)C(=O)O; Lys(Me) = CNCCCC[C@H](N)C(=O)O; Me2a = not defined here; me2a = not defined here

T1: CaBdf1 BD1 (GST-tagged, wild-type) (Candida albicans (strain SC5314 / ATCC …, UniProt Q5A4W8))
T1 chain: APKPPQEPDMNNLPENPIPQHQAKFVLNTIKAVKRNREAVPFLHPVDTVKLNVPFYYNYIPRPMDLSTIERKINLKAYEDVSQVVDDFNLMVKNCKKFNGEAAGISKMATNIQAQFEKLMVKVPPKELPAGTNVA

T2: CaBdf1 BD2 (GST-tagged, wild-type) (Candida albicans (strain SC5314 / ATCC …, UniProt Q5A4W8))
T2 chain: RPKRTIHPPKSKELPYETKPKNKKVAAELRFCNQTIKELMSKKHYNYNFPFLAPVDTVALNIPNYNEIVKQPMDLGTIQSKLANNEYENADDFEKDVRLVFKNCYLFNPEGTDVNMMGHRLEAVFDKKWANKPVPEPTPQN

B1: H3 1-19 (peptide)
chain: ARTKQTARKSTGGKAPRKQ
modifications: A R T Kac Q T A Rme2a Kac S T G G K A P R K Q
B2: H3 1-19 (peptide)
chain: ARTK(Me)QTAR(me2s)K(Me)STGGKAPRKQ
B3: H3 1-19 (peptide)
chain: AR(me2s)TK(Me)QTARKSTGGKAPRKQ
B4: H2B 1-19 (peptide)
chain: PDPAKSAPAPKKG[pS]K(Ac)KAVT
B5: H3 1-19 (peptide)
chain: ARTKQTARKSTGGKAPRKQ
modifications: A R T Kac Q T A Rme2s Kme2 S T G G K A P R K Q
B6: H2a 1-19 (peptide)
chain: SGRGKQGGK(Ac)ARAKAKSRSS
B7: H3 1-19 (peptide)
chain: A[Arg(Me2s)]TK(Ac)QTA[Arg(Me2a)][Lys(Me)]STGGKAPRKQ
B8: H3 1-19 (peptide)
chain: ARTKQTARKSTGGKAPRKQ
modifications: A Rme2s pT Kme3 Q T A R K S T G G K A P R K Q
B9: H2a 1-19 (peptide)
chain: [pS]GRGKQGGKARAK(Ac)AKSRSS
B10: H3 16-35 (peptide)
chain: PRKQLATKAARKSAPATGG
modifications: P R K Q L A T K A A Rme2a Kme3 S A P A T G G
B11: H2a 1-19 (peptide)
chain: [pS]GRGKQGGK(Ac)ARAKAKSRSS
B12: H4 1-19 (peptide)
chain: SGRGKGGKGLGKGGAKRHR
modifications: S G Rme2s G Kac G G Kac G L G Kac G G A K R H R
B13: H3 16-35 (peptide)
chain: PRKQLATKAAR(Me2s)KSAPATGG
B14: H3 1-19 (peptide)
chain: ARTKQTARKSTGGKAPRKQ
modifications: A Rme2s T Kac Q T A Rme2a Kac S T G G K A P R K Q
B15: H2a 1-19 (peptide)
chain: [pS]GRGKQGGK(Ac)ARAK(Ac)AKSRSS
B16: H3 16-35 (peptide)
chain: PRKQLATKAARK(Me2)[pS]APATGG
B17: H3 1-19 (peptide)
chain: ARTKQTARKSTGGKAPRKQ
modifications: A R T K Q T A R K pS T G G K A P R K Q
B18: H4 1-19 (peptide)
chain: SGRGKGGKGLGKGGAKRHR
modifications: S G Rme2a G Kac G G K G L G K G G A K R H R
B19: H3 1-19 (peptide)
chain: ARTKQTARKSTGGKAPRKQ
modifications: A Rme2s T Kac Q T A R Kme3 S T G G K A P R K Q
B20: H3 16-35 (peptide)
chain: PRKQLATKAAR(Me2a)K(Me)[pS]APATGG
modifications: reading uncertain
B21: H3 1-19 (peptide)
chain: ARTKQTARKSTGGKAPRKQ
modifications: A R T K Q T A R K pS T G G Kac A P R K Q
B22: H3 1-19 (peptide)
chain: A[Arg(Me2a)][pT][Lys(Me3)]QTARKSTGGKAPRKQ
B23: H3 1-19 (peptide)
chain: ARTKQTA[Arg(Me2a)][Lys(Me)]S[pT]GGKAPRKQ
B24: H3 1-19 (peptide)
chain: AR(me2a)TK(me2)QTAR(me2a)K(Me)STGGKAPRKQ
modifications: reading uncertain
B25: H3 1-19 (peptide)
chain: AR(Me2s)TK(Me)QTAR(Me2a)K(Me)STGGKAPRKQ
modifications: reading uncertain

Target: T1, CaBdf1 BD1 (GST-tagged, wild-type)
Assay: histone peptide array (Active Motif MODified), 1 uM GST-tagged bromodomain, anti-GST detection, normalized mean intensity

| Binder | binding score |
| --- | --- |
| B1 | 0.0464 |
| B2 | 0.00689 |
| B3 | 0.00326 |
| B4 | 0.0914 |
| B5 | 0.00363 |
| B6 | 0.0276 |
| B7 | 0.00834 |
| B8 | 0.00363 |
| B9 | 0.0906 |
| B10 | 0.00363 |
| B11 | 0.0174 |
| B12 | 0.175 |
| B13 | 0.00616 |
| B14 | 0.0573 |
| B15 | 0.0642 |
| B16 | 0.0029 |
| B17 | 0.00181 |
| B18 | 0.0105 |
| B19 | 0.00616 |
| B20 | 0.0029 |
| B21 | 0.0301 |
| B22 | 0.00725 |
| B23 | 0.00471 |
| B24 | 0.00363 |
| B25 | 0.00435 |

Target: T2, CaBdf1 BD2 (GST-tagged, wild-type)
Assay: as above

| Binder | binding score |
| --- | --- |
| B1 | 0.0126 |
| B2 | 0.00592 |
| B3 | 0.00037 |
| B4 | 0.145 |
| B5 | 0.00296 |
| B6 | 0.00814 |
| B7 | 0.00296 |
| B8 | 0.00185 |
| B9 | 0.02 |
| B10 | 0.00703 |
| B11 | 0.0137 |
| B12 | 0.332 |
| B13 | 0.0037 |
| B14 | 0.00851 |
| B15 | 0.00592 |
| B16 | 0.00074 |
| B17 | 0.00074 |
| B18 | 0.00703 |
| B19 | 0.00259 |
| B20 | 0.00703 |
| B21 | 0.0107 |
| B22 | 0.00074 |
| B23 | 0.00259 |
| B24 | 0.00629 |
| B25 | 0.00222 |
